Experimental data from patent US20250145711A1 (Janssen / Centocor, published 2025).

B1: PS3B913 (bispecific antibody, human IgG1, lambda, L234A L235A)
heavy 1: QVQLQQSGPRLVRPSQTLSLTCAISGDSVFNNNAAWSWIRQSPSRGLEWLGRTYYRSKWLYDYAVSVKSRITVNPDTSRNQFTLQLNSVTPEDTALYYCARGYSSSFDYWGQGTLVTVSSASTKGPSVFPLAPSSKSTSGGTAALGCLVKDYFPEPVTVSWNSGALTSGVHTFPAVLQSSGLYSLSSVVTVPSSSLGTQTYICNVNHKPSNTKVDKKVEPKSCDKTHTCPPCPAPEAAGGPSVFLFPPKPKDTLMISRTPEVTCVVVSVSHEDPEVKFNWYVDGVEVHNAKTKPREEQYNSTYRVVSVLTVLHQDWLNGKEYKCKVSNKALPAPIEKTISKAKGQPREPQVYTLPPSREEMTKNQVSLTCLVKGFYPSDIAVEWESNGQPENNYKTTPPVLDSDGSFLLYSKLTVDKSRWQQGNVFSCSVMHEALHNHYTQKSLSLSPG
light 1: QSALTQPASVSGSPGQSITISCTGTSSNIGTYKFVSWYQQHPDKAPKVLLYEVSKRPSGVSSRFSGSKSGNTASLTISGLQAEDQADYHCVSYAGSGTLLFGGGTKLTVLGQPKAAPSVTLFPPSSEELQANKATLVCLISDFYPGAVTVAWKADSSPVKAGVETTTPSKQSNNKYAASSYLSLTPEQWKSHRSYSCQVTHEGSTVEKTVAPTECS
heavy 2: not shown
light 2: not shown
notes: FAB-A: CD3B891 (CD3B376 - K477); FAB-B: PSMB891
B2: PS3B931 (bispecific antibody, human IgG1, kappa, lambda, L234A L235A)
heavy 1: EVQLVESGGGLVKPGGSLRLSCAASGFTFSRYNMNWVRQAPGKGLEWVSSISTSSNYIYYADSVKGRFTFSRDNAKNSLDLQMSGLRAEDTAIYYCTRGWGPFDYWGQGTLVTVSSASTKGPSVFPLAPSSKSTSGGTAALGCLVKDYFPEPVTVSWNSGALTSGVHTFPAVLQSSGLYSLSSVVTVPSSSLGTQTYICNVNHKPSNTKVDKKVEPKSCDKTHTCPPCPAPEAAGGPSVFLFPPKPKDTLMISRTPEVTCVVVSVSHEDPEVKFNWYVDGVEVHNAKTKPREEQYNSTYRVVSVLTVLHQDWLNGKEYKCKVSNKALPAPIEKTISKAKGQPREPQVYTLPPSREEMTKNQVSLTCLVKGFYPSDIAVEWESNGQPENNYKTTPPVLDSDGSFLLYSKLTVDKSRWQQGNVFSCSVMHEALHNHYTQKSLSLSP
light 1: DIQMTQSPSSLSASVGDRVTITCRARQSIGTAIHWYQQKPGKAPKLLIKYASESISGVPSRFSGSGSGTDFTLTISSLQPEDFATYYCQQSGSWPYTFGQGTKLEIKRTVAAPSVFIFPPSDEQLKSGTASVVCLLNNFYPREAKVQWKVDNALQSGNSQESVTEQDSKDSTYSLSSTLTLSKADYEKHKVYACEVTHQGLSSPVTKSFNRGEC
heavy 2: EVQLVESGGGLVKPGGSLRLSCAASGFTFSRYNMNWVRQAPGKGLEWVSSINSNSRYIYYADSVKGRFTISRDSAKNSLYLQMNSLRAEDTAVYYCAKTMGDYYYYYGMDVWGQGTTVTVSSASTKGPSVFPLAPSSKSTSGGTAALGCLVKDYFPEPVTVSWNSGALTSGVHTFPAVLQSSGLYSLSSVVTVPSSSLGTQTYICNVNHKPSNTKVDKKVEPKSCDKTHTCPPCPAPEAAGGPSVFLFPPKPKDTLMISRTPEVTCVVVSVSHEDPEVKFNWYVDGVEVHNAKTKPREEQYNSTYRVVSVLTVLHQDWLNGKEYKCKVSNKALPAPIEKTISKAKGQPREPQVYTLPPSREEMTKNQVSLTCLVKGFYPSDIAVEWESNGQPENNYKTTPPVLDSDGSFFLYSRLTVDKSRWQQGNVFSCSVMHEALHNHYTQKSLSLSPG
light 2: SSELTQPPSVSGAPGQRVTISCAGSLSNIGAGYDVHWYQQLPGTAPKLLIYGNINRLSGVPERFSGSKSGTSASLAITGLQAEDGADYYCQSYDSSLSSYVFGTGTKVTVLGQPKAAPSVTLFPPSSEELQANKATLVCLISDFYPGAVTVAWKADSSPVKAGVETTTPSKQSNNKYAASSYLSLTPEQWKSHRSYSCQVTHEGSTVEKTVAPTECS
notes: FAB-A: CD3B2183 (CD3W245); FAB-B: PSMB890

Legend:
[1] = target: T1, human PSMA on prostate cancer cell lines (22RV1, C4-2B) (human, UniProt Q04609 1-750); experiment: flow cytometry on 22RV1 cells
T1 construct: also called PSMA-expressing cell lines
Protocol: (§1) 22RV1 and C4-2B cells were plated at 50,000 cells per well in 50 μl of assay medium (RPMI, 10% HI FBS) in V bottom plates. Serial dilutions of antibodies were prepared in assay medium with 50 μl of antibody dilutions added to the plates containing cells. The plates were incubated for 60 min at 37° C. at which time 100 μl of staining buffer (Becton Dickinson Cat #554657) was added to all wells of each plate. The plates were centrifuged at 300×G for 5 minutes and the medium was removed from the wells. 200 μl of staining buffer was added to all wells of each plate. The plates were centrifuged at 300× G for 5 minutes and the medium was removed from the wells. 50 μl of 2 μg/ml AlexaFluor647-labeled goat anti-human Fc was added to all wells of the plates and the plates were incubated for 30 minutes at 4° C. 150 μl of staining buffer was added to all wells of each plate. The plates were centrifuged at 300× G for 5 minutes and the medium was removed from the wells.

recombinant human PSMA = target: T2, recombinant human PSMA (human, UniProt Q04609 44-750); experiment: SPR (Biacore 8K), antibody captured on anti-Fc, PSMA in solution
T2 construct: also called hu PSMA; prostate-specific membrane antigen
Protocol: The binding affinity of anti-PSMA to the recombinant human, cynomolgus or mouse PSMA was determined by surface plasmon resonance (SPR) using a Biacore 8K instrument\. […] The association and dissociation were monitored for 3 and 15 minutes, respectively, using a flow rate of 50 μL/min. Raw binding data was referenced by subtracting the analyte binding signals from blanks and analyzed using a 1:1 Langmuir binding model using the Biacore Insight evaluation software to obtain the kinetics which were used to calculate the binding affinity. The anti-PSMA were captured using an anti-human Fc antibody and the antigens were injected in solution.

[2] = target: T1, human PSMA on prostate cancer cell …; experiment: flow cytometry on C4-2B cells
Protocol: as §1

T1 sequence (Q04609 whole entry): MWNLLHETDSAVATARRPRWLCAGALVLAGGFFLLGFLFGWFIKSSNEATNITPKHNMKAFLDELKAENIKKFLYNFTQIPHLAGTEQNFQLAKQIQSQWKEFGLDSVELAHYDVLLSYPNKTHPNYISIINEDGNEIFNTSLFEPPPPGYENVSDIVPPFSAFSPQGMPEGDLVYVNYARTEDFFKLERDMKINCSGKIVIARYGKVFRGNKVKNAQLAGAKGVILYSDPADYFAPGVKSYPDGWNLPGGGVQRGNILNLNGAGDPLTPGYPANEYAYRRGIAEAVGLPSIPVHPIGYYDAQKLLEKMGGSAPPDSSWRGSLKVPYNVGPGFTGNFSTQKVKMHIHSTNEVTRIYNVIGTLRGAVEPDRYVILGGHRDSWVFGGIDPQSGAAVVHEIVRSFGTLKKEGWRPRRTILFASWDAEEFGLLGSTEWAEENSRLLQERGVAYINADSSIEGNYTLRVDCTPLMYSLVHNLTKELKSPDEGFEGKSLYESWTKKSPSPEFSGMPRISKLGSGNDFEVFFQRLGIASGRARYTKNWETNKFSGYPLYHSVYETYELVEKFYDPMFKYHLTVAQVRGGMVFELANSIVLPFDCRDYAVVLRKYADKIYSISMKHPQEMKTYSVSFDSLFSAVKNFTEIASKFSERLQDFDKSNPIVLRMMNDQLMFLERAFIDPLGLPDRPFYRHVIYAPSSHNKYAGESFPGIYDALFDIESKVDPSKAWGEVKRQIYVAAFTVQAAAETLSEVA
T2 sequence (Q04609 44-750 limits assumed): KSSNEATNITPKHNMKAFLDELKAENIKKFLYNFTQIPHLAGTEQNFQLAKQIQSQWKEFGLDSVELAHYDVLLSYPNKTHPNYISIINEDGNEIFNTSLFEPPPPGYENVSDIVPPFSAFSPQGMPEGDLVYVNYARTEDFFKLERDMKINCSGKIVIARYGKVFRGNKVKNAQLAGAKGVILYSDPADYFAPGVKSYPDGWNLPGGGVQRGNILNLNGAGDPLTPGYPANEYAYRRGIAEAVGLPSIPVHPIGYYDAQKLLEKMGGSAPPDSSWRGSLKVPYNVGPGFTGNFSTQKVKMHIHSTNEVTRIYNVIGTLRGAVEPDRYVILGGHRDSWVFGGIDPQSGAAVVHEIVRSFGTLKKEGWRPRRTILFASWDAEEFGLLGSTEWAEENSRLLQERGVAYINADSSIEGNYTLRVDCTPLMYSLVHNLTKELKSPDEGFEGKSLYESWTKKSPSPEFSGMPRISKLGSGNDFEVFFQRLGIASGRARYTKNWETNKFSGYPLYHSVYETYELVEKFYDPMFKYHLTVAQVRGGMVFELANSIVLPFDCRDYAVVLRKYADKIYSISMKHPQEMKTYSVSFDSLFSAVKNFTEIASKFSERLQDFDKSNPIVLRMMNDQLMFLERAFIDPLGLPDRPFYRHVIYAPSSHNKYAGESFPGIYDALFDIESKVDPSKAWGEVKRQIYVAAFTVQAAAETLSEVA

Binder	EC50 [1] [nM]	Kd (recombinant human PSMA) [nM]	EC50 [2] [nM]
B1	3.42	≤ 0.24	4.56
B2	60	–	60
